Assay results: patent US10287554B2, “Induced pluripotent stem cell model for Fabry disease and use thereof” (KOREA ADVANCED INSTITUTE OF SCIENCE AND TECHNOLOGY, priority 2013, dated 2019)

How the values were obtained:
Format in all cases: cell-based, human
Details in all cases: 10 μg/ml for 5 days, compared with before treatment (FIG. 15)
[1] = test system: FB-iPSCs (Fabry disease patient originated iPSCs); test: Gb3 deposit by anti-Gb3 immunofluorescent staining in FB-iPSCs after Fabrazyme treatment
Method: (§1) Particularly, the FB-iPSCs prepared in Example <1-2> were treated with phosphate buffered saline (PBS) containing 4% formaldehyde, followed by fixing at room temperature for 15 minutes. The cells were treated with 0.1% triton X-100 to give permeability to the cell membrane. After the treatment, the cells were added with 4% normal donkey serum, followed by blocking at room temperature for 1 hour. The cells were treated with the primary antibody such as anti-OCT4 antibody (1:300, R&D Systems, USA), anti-NANOG antibody (1:300, Cell signaling technology, USA), anti-SSEA-4 antibody (1:300, R&D Systems, USA), anti-SOX2 rabbit antibody (BD Transduction Laboratories, USA), anti-Tra-1-81 antibody (1:300, Millipore, USA) or anti-Tra-1-60 antibody (1:300, Millipore, USA), followed by culture overnight at 4° C. Then, the cells were washed several times with PBST (PBS containing 0.1% Tween-20). The cells were treated with Alexa Fluor 488 or Alexa Fluor 594-conjugated secondary antibody (Invitrogen, USA), followed by further culture for 1 hour, leading to immunofluorescent staining of FB-iPSCs.
To investigate whether or not the pharmacologic treatment during the FB-iPSC differentiation was effective in improving Fabry disease, the differentiation of vascular cells was induced from FB-iPSCs and then the cells were treated with Fabrazyme, the α-galactosidase recombinant protein. […]

[2] = test system: vascular endothelial cells differentiated from FB-iPSCs; test: Gb3 deposit by anti-Gb3 immunofluorescent staining in FB-iPSC originated vascular endothelial cells after Fabrazyme treatment
Method: as §1
(§2) Particularly, the FB-iPSCs developed by the same manner as described in Example <1-2> were chopped in even sizes of 300˜500 μm in diameter by using a 10 μl syringe needle. […]

[3] = test system: vascular smooth muscle cells differentiated from FB-iPSCs; test: Gb3 deposit by anti-Gb3 immunofluorescent staining in FB-iPSC originated vascular smooth muscle cells after Fabrazyme treatment
Method: as §1, §2

B1: Fabrazyme: the α-galactosidase recombinant protein (GLA recombinant protein), belonging to agalsidase beta (protein, UniProt P06280 32-429, looked up)
Alpha-galactosidase A: LDNGLARTPTMGWLHWERFMCNLDCQEEPDSCISEKLFMEMAELMVSEGWKDAGYEYLCIDDCWMAPQRDSEGRLQADPQRFPHGIRQLANYVHSKGLKLGIYADVGNKTCAGFPGSFGYYDIDAQTFADWGVDLLKFDGCYCDSLENLADGYKHMSLALNRTGRSIVYSCEWPLYMWPFQKPNYTEIRQYCNHWRNFADIDDSWKSIKSILDWTSFNQERIVDVAGPGGWNDPDMLVIGNFGLSWNQQVTQMALWAIMAAPLFMSNDLRHISPQAKALLQDKDVIAINQDPLGKQGYQLRQGDNFEVWERPLSGLAWAVAMINRQEIGGPRSYTIAVASLGKGVACNPACFITQLLPVKRKLGFYEWTSRLRSHINPTGTVLLQLENTMQMSLKDLL
Gb3 deposit [1]: significantly reduced and hardly detected | Gb3 deposit [2]: significantly reduced and hardly detected | Gb3 deposit [3]: significantly reduced and hardly detected
